# B1: HypIL-11 (human IL-11 fused by a short linker to domains D2 and D3 of IL-11Rα, single chain) (other)
# chain: PPARPVVSCQAADYENFSCTWSPSQISGLPTRYLTSYRKKTVLGADSQRRSPSTGPWPCPQDPLGAARCVVHGAEFWSQYRINVTEVNPLGASTRLLDVSLQSILRPDPPQGLRVESVPGYPRRLRASWTYPASWPCQPHFLLKFRLQYRPAQHPAWSTVEPAGLEEVITDAVAGLPHAVRVSARDFLDAGTWSTWSPEAWGTPSTPGPPPGPPRVSPDPRAELDSTVLLTRSLLADTRQLAAQLRDKFPADGDHNLDSLPTLAMSAGALGALQLPGVLTRLRADLLSYLRHVQWLRRAGGSSLKTLEPELGTLQARLDRLLRRLQLLMSRLALPQPPPDPPAPPLAPPSSAWGGIRAAHAILGGLHLTLDWAVRGLLLLKTRL
# Assays:
# [1] = target: T1, biotinylated murine wildtype gp130 (D1-D6) with C-terminal biotin acceptor peptide and hexa-histidine tag (murine, UniProt Q00560 23-617, biotin on the C-terminal biotin acceptor peptide (in vitro, BirA)); test: SPR
# T1 chain: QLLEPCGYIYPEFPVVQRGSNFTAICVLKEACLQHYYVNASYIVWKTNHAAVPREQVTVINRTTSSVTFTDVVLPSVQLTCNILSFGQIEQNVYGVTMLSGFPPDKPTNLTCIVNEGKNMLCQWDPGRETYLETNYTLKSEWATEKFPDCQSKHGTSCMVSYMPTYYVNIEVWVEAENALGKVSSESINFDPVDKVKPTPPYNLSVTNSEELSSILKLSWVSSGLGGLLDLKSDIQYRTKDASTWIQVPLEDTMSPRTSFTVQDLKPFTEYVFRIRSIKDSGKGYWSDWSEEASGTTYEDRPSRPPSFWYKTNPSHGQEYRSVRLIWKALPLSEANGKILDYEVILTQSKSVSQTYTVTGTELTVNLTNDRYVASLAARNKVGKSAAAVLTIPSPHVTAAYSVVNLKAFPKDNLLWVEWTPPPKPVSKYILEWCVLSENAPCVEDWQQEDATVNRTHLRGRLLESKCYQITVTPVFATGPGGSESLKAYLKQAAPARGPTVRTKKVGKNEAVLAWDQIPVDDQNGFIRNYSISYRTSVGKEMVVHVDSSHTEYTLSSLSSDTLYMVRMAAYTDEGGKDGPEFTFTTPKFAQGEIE
# [2] = target: T2, biotinylated murine gp130_(P496L) (D1-D6) with C-terminal biotin acceptor peptide and hexa-histidine tag (murine, UniProt Q00560 23-617, P496L, biotin on the C-terminal biotin acceptor peptide (in vitro, BirA)); test: SPR
# [3] = target: T1, biotinylated murine wildtype gp130 …; test: SPR; equilibrium fit
# [4] = target: T2, biotinylated murine gp130_(P496L) …; test: SPR; equilibrium fit
# [5] = target: T1, biotinylated murine wildtype gp130 …; test: SPR; kinetic fit
# [6] = target: T2, biotinylated murine gp130_(P496L) …; test: SPR; kinetic fit
binder,measurement,setting,value
B1,koff,[1],0.0023 s⁻¹
same,koff,[2],0.0027 s⁻¹
same,Kd,[3],8.5 nM
same,Kd,[4],11 nM
same,Kd,[5],1.45 nM
same,Kd,[6],1.8 nM
